Assay results: publication PMC9453702, “Structure-function analysis of enterovirus protease 2A in complex with its essential host factor SETD3” (Nature Communications, 2022)
Changes are numbered by the printed parent chain. Numbers in names are those of the source.

Assays:
[1] = target: coxsackievirus B3 protease 2A with C-terminal His6-tag (for biolayer interferometry); assay: biolayer interferometry; conditions: parent: 0.0051 s-1
[2] = target: 2xStrep-tagged catalytically dead CV-B3 2A, expressed in human cells; assay: FLAG affinity purification with label-free quantitative MS; conditions: co-transfected CV-B3 2A; four biologically independent experiments; parent: est. 5.5e7; read off a plot
[3] = target: actin (Homo sapiens) (UniProt P60709); conditions: cited from earlier work
[4] = target: coxsackievirus B3 protease 2A with C-terminal His6-tag (for biolayer interferometry) (coxsackievirus B3 (Nancy strain)); assay: BLI; Octet RED384; His-tagged 2A loaded on Ni-NTA biosensors at 20 µg/ml, SETD3 variants in solution at several concentrations; 20 mM Tris/HCl pH 8.0, 150 mM NaCl, 5% glycerol, 1 mM DTT; global fit with Rmax unlinked
[5] = target: coxsackievirus B3 (Nancy strain) protease 2A, C107A (recombinant, tag cleaved) (coxsackievirus B3 (Nancy strain))
[6] = target: T1, human SETD3, wild type (recombinant, tag cleaved) (human, UniProt Q86TU7 1-594); assay: BLI; competition: His-tagged 2A on Ni-NTA biosensors, 3-fold dilution series of actin peptide (40 nM to 10 µM) with SETD3 constant at 310 nM; 20 mM Tris/HCl pH 8.0, 150 mM NaCl, 5% glycerol, 1 mM DTT; maximum binding against peptide concentration; conditions: both partners purified
T1 construct: SETD3, actin histidine methyltransferase, human; codon-optimised gene in vector 2G-T; also called WT SETD3; SETD3 WT; source: E. coli BL21*(DE3), purified (Glutathione Sepharose 4B, TEV digest, His-Trap FF flow-through; Superdex 200 Increase for BLI)
T1 sequence: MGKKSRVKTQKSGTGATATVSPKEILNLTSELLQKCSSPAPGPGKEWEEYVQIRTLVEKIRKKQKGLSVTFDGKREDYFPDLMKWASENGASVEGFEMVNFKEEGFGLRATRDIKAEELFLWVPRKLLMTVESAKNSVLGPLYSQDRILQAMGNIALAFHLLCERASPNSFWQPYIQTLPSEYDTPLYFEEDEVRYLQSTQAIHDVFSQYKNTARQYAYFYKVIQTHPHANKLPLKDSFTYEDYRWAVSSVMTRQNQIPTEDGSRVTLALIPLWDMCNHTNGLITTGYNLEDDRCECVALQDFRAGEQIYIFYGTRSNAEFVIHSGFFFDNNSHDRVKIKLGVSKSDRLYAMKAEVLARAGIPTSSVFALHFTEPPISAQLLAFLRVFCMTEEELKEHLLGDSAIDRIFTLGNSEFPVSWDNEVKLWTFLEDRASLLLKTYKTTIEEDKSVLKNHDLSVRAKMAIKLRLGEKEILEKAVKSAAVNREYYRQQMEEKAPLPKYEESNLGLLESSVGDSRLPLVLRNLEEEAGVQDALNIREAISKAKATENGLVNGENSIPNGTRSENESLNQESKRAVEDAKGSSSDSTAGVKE

“human SETD3, wild type (recombinant, tag cleaved) (from UniProt Q86TU7) G361R; F409A” gave a koff [1] of 0.0131 s⁻¹.

“FLAG-tagged SETD3, wild type, expressed in human cells (from UniProt Q86TU7) Q257A; V266D” gave a response [2] of 1.7e+06.

For “human SETD3, wild type (recombinant, tag cleaved) (from UniProt Q86TU7) Y288P”, the koff [1] was 0.32 s⁻¹.

“FLAG-tagged SETD3, wild type, expressed in human cells (from UniProt Q86TU7) Q257A; V266D; Y288P” showed a response [2] of 900000.

Work on “human SETD3, wild type (recombinant, tag cleaved) (from UniProt Q86TU7) G361R” yielded a koff [1] of 0.0116 s⁻¹.

Molecule “FLAG-tagged SETD3, wild type, expressed in human cells (from UniProt Q86TU7) Q257A; V266D; Y288P; G361R” has a response [2] of 450000.

For SETD3 (from UniProt Q86TU7), the Kd [3] is listed as 170 nM.

In the case of “human SETD3, wild type (recombinant, tag cleaved) (from UniProt Q86TU7) Q257A; V266D”, the koff [1] is reported as 0.45 s⁻¹.

B1: human SETD3, wild type (recombinant, tag cleaved) (enzyme)
chain: T1 sequence
In the case of B1, the Kd [4] is reported as 47 nM, the 2A protease activity towards a FRET peptide of the VP1-2A cis-cleavage site; catalytically active WT 2A alone against its complex with WT SETD3 [5] is reported as 1.5 fold and the kcat/Km of catalytically active WT 2A in complex with WT SETD3 towards a FRET peptide of the VP1-2A cis-cleavage site (1.5 mM^-1 min^-1 for 2A alone) [5] is reported as 38 M⁻¹ s⁻¹.

B2: human SETD3 Q257A + V266D (recombinant, tag cleaved) (enzyme)
chain: T1 sequence with Q257A, V266D
For B2, the Kd [4] was 10000 nM.

B3: human SETD3 Y288P (recombinant, tag cleaved) (enzyme)
chain: T1 sequence with Y288P
Molecule B3 has a Kd [4] of 2500 nM.

B4: human SETD3 G361R (recombinant, tag cleaved) (enzyme)
chain: T1 sequence with G361R
Molecule B4 has a Kd [4] of 110 nM.

B5: human SETD3 G361R + F409A (recombinant, tag cleaved) (enzyme)
chain: T1 sequence with G361R, F409A
Work on B5 yielded a Kd [4] of 132 nM.

B6: synthetic actin peptide, residues 66-81, H73L (peptide)
peptide: TLKYPIELGIVTNWDD
notes: also called actin peptide 66-81 with His73 replaced by leucine; source: synthetic peptide
B6 gave an IC50 [6] of 1500 to 3400 nM.
